Source: IntAct's records for PubMed 18502764

Target: ehd2_mouse Ehd2 (UniProt Q8BH64)
Chain of UniProt Q8BH64 (Q8BH64 whole entry): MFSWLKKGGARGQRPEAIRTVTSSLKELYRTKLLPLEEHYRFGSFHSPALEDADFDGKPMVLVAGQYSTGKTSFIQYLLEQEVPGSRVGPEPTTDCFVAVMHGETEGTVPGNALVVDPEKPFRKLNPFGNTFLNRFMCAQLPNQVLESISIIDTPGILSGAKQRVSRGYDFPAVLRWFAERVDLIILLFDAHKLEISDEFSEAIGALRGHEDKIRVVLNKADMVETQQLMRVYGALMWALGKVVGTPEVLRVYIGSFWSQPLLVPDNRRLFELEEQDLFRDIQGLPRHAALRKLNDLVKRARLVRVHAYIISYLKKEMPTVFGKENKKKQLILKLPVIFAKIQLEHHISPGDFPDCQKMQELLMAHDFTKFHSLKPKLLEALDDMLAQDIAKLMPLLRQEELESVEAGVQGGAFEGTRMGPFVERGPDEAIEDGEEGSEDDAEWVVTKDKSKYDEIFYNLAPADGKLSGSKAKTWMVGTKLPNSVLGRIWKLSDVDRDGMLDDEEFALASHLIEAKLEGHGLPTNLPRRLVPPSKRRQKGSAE

Myoferlin (Homo sapiens), Q9NZM1 N238C
effect of a mutation on the interaction: decreasing interaction
